Results published in patent US20110287979A1 (ONCOMED PHARMACEUTICALS, published 2011).

Biological target: T1, hJag1-rFc (human; rabbit, UniProt P78504 34-1067; P01870 96-323, limits assumed)
T1 construct: also called hJag-rFc; control antigen
Assay: FACS of transfected HEK-293 cells incubated with hJag-rFc and PE-labeled anti-rabbit Fc antibody
Protocol: The effect of carrier plasmid on the transfection and display of an Ab-encoding plasmid was tested. The single chain anti-DLL4 antibody (sc21M18) described above was transfected with varying ratios of carrier plasmid. In this study, the carrier plasmid encoded an irrelevant […] antibody (sc18R5). The cells were also transfected with the Membrane-MAb(hIgG2)-GFP construct. The concentration of Ab library plasmid in the cells could be inferred from the level of surface expression of the anti-DLL4 antibody molecule. Approximately 5×10⁶ HEK-293 cells were transfected with plasmid DNA and harvested after 48 hours. The plasmid DNA was a mixture of sc21M18 and sc18R5, wherein the ratio of sc21M18 to sc18R5 varied from 1 to 10,000-fold excess of sc18R5 (1, 10, 100, 1000 or 10,000-fold excess). For detection of a functional anti-DLL4 antibody molecule on the cell surface, transfected cells were incubated with an hDLL4-rFc fusion protein. Bound hDLL4-rFc was detected with a PE-labeled anti-rabbit Fc antibody. The percentage of cells which expressed anti-DLL4 antibody was determined by FACS analysis. Cells were also incubated with a control antigen (hJag-rFc, -▪-) or only the PE-labeled anti-rabbit Fc antibody (-▴-).

T1 sequence (P78504 other isoform, or with tags, fused parts or gaps limits assumed): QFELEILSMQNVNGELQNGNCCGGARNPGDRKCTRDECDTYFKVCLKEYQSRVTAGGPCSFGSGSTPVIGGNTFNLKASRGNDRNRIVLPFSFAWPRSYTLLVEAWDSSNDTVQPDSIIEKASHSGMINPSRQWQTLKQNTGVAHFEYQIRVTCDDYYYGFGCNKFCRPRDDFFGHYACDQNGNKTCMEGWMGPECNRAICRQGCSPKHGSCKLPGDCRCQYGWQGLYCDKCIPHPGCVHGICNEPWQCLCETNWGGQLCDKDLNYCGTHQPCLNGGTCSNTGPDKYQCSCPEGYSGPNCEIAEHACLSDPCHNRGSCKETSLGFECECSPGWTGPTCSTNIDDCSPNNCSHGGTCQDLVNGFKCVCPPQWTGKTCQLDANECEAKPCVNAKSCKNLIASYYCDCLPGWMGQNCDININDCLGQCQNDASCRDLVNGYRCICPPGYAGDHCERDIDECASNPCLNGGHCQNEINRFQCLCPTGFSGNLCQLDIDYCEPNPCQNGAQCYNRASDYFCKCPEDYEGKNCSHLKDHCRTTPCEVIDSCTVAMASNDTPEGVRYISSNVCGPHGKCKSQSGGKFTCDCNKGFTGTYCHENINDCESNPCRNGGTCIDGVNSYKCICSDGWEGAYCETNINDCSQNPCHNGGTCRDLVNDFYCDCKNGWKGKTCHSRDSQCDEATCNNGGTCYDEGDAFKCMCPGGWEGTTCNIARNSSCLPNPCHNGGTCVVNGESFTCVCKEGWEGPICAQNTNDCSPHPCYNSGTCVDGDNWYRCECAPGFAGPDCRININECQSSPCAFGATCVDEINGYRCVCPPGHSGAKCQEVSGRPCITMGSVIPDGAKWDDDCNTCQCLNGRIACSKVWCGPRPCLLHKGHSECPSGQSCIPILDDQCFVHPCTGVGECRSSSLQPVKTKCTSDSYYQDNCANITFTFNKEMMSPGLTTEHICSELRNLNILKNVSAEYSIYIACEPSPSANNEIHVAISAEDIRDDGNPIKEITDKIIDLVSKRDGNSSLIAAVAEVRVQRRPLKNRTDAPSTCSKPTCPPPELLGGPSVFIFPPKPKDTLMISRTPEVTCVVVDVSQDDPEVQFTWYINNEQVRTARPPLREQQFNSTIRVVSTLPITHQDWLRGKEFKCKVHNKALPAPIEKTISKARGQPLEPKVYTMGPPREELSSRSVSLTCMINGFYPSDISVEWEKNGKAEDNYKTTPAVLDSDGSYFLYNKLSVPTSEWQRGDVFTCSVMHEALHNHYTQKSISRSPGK

B1: heterodimeric antibody molecule: single chain anti-DLL4 antibody sc21M18 associated with the Membrane-MAb(hIgG2)-GFP protein on the surface of HEK-293 cells (antibody)
chain 1: DIVMTQSPDSLAVSLGERATISCRASESVDNYGISFMKWFQQKPGQPPKLLIYAASNQGSGVPDRFSGSGSGTDFTLTISSLQAEDVAVYYCQQSKEVPWTFGGGTKVEIKRTVAAPSVFIFPPSDEQLKSGTASVVCLLNNFYPREAKVQWKVDNALQSGNSQESVTEQDSKDSTYSLSSTLTLSKADYEKHKVYACEVTHQGLSSPVTKSFNRGECGGGGGSGGGGSGGGGSGGGGSGGGGSGGGGSQVQLVQSGAEVKKPGASVKISCKASGYSFTAYYIHWVKQAPGQGLEWIGYISSYNGATNYNQKFKGRVTFTTDTSTSTAYMELRSLRSDDTAVYYCARDYDYDVGMDYWGQGTLVTVSSASTKGPSVFPLAPCSRSTSESTAALGCLVKDYFPEPVTVSWNSGALTSGVHTFPAVLQSSGLYSLSSVVTVPSSNFGTQTYTCNVDHKPSNTKVDKTVERKCCVECPPCPAPPVAGPSVFLFPPKPKDTLMISRTPEVTCVVVDVSHEDPEVQFNWYVDGVEVHNAKTKPREEQFNSTFRVVSVLTVVHQDWLNGKEYKCKVSNKGLPAPIEKTISKTKGQPREPQVYTLPPSREEMTKNQVSLTCLVKGFYPSDIAVEWESNGQPENNYKTTPPMLDSDGSFFLYSKLTVDKSRWQQGNVFSCSVMHEALHNHYTQKSLSLSPGK
chain 2: not shown
notes: also called anti-DLL4 antibody molecule
binding result: no binding
